Experiment [1] addresses PP1alpha 7-330 (Homo sapiens) (UniProt P62136). In words: SPR. The settings on record: cited from earlier work.
In a further experiment the target is T1, PP1α_(1-330) (UniProt P62136 1-330).
T1 construct: Protein phosphatase 1 alpha catalytic subunit (PP1α), residues 1-330; also called Protein Phosphatase 1
In words: NMR titration; 2D [1H,15N] HSQC of 15N-labelled I3_(1-126) free and in complex; loss of cross-peaks on binding; 283 K, 20 mM Bis-Tris pH 6.8, 500 mM NaCl, 0.5 mM TCEP. Particulars: both partners purified.

In experiment [2] the target is T2, SDS22_(56-360):PP1α_(7-330) complex (UniProt Q15435 56-360; P62136 7-330).
T2 construct: SDS22 (PPP1R7), residues 56-360; Protein phosphatase 1 alpha catalytic subunit (PP1α), residues 7-330; PP1 in this complex lacks the M1 metal; The same complex treated with EDTA (M2 metal extracted) is kept as this molecule and told apart by assay a4; the His6 tag of SDS22 was cleaved, so it is probably His6-PP1; also called SDS22:PP1; SDS22:PP1_(M2-metal-free) / metal-free …
Description: SPR; His6-PP1 constructs or SDS22_(56-360):PP1α_(7-330) captured on a Ni-NTA chip (NiHC200M), I3 and variants injected; 25 °C; 20 mM Tris pH 8.0, 500 mM NaCl, 0.5 mM TCEP, 0.05% Tween-20; one-to-one one-state or two-state fit. Particulars: both partners purified. Background: In SPR one partner is held on a chip, and binding of the other changes the refractive index at the surface.

Residue numbers refer to the chain shown, from its start. Names may count otherwise.

Sequence of PP1alpha 7-330 (Homo sapiens) (P62136 7-330): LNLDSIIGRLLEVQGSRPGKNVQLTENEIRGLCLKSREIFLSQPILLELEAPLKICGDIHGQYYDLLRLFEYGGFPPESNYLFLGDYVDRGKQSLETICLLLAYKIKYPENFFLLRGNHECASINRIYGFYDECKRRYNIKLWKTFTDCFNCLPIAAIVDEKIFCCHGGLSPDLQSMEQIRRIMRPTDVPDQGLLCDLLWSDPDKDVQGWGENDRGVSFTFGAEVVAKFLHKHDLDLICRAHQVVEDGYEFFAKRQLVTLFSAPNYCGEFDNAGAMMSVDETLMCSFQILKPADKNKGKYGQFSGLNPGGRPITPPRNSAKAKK
T2 sequence (Q15435 56-360, chain 1 of 2): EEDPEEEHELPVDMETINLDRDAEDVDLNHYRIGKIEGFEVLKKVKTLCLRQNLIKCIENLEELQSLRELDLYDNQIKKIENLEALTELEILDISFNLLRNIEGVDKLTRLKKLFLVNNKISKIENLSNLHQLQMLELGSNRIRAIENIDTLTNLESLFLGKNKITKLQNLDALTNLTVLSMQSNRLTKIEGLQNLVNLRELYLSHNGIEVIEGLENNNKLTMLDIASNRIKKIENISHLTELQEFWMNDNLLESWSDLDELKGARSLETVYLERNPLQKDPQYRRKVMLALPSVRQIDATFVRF
T2 sequence (P62136 7-330, chain 2 of 2): as the sequence (P62136 7-330) above
T1 sequence (P62136 whole entry, the tested form may be a part): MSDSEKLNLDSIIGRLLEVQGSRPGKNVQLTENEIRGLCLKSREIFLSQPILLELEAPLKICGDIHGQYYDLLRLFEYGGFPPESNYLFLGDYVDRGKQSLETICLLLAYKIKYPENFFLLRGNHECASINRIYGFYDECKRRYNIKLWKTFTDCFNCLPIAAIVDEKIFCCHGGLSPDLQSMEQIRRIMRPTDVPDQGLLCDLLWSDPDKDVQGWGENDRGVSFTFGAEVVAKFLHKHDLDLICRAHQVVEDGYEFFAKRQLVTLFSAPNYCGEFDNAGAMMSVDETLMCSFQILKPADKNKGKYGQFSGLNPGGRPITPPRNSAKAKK

A word on the Kd: it is the constant that tells how readily two partners part at equilibrium. For I3 1-126 (from UniProt O60927), the Kd in experiment [1] was 10 nM.

I3 27-68 (from UniProt O60927): in experiment [1], the Kd was 10 nM.

B1: Inhibitor-3 (I3), I3_(1-126) (natural protein, human, UniProt O60927 1-126, looked up)
chain: MAEAGAGLSETVTETTVTVTTEPENRSLTIKLRKRKPEKKVEWTSDTVDNEHMGRRSSKCCCIYEKPRAFGESSTESDEEEEEGCGHTHCVRGHRKGRRRATLGPTPTTPPQPPDPSQPPPGPMQH
notes: 15N-labelled in the NMR experiments, unlabelled in SPR; also called FL I3; PPP1R11; source: E. coli BL21 (DE3), purified (Ni-NTA, TEV, heat 95 °C, SEC); not shown: His6, N-terminal, cleaved; MBP, N-terminal, cleaved
As to B1, in the experiment with PP1α_(1-330), the binding result is “binds”. This molecule showed a Kd in experiment [2] of 132 ± 5 nM.

B2: I3_(1-126) C60S/C61S/C62S (natural protein, human, UniProt O60927 1-126, looked up)
chain: B1 chain with C60S, C61S, C62S
notes: also called I3_(1-126) SSS; I3 SSS; source: E. coli BL21 (DE3), purified (Ni-NTA, TEV, heat 95 °C, SEC); not shown: His6, N-terminal, cleaved; MBP, N-terminal, cleaved
The molecule B2 showed a Kd in experiment [2] of 400 ± 44 nM.
